Columns and labels:
Test in all cases: holdup assay
Parameters in all cases: key: below the threshold = too weak to quantify, mostly under pKd 3.1 to 4
MPP6, Q9NZW5 = target: T1, MPP6, Q9NZW5
T1 sequence (Q9NZW5 125-219, limits assumed, looked up): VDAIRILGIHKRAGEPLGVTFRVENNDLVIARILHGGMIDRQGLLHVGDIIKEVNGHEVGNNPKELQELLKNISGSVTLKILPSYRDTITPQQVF

DLG4_2, P78352 = target: DLG4_2, P78352
TJP2_1, Q9UDY2 = target: TJP2_1, Q9UDY2
IL16_1, Q14005 = target: IL16_1, Q14005
FRMPD3, Q5JV73 = target: FRMPD3, Q5JV73
FRMPD3, Q5JV73, sequence (Q5JV73 12-100): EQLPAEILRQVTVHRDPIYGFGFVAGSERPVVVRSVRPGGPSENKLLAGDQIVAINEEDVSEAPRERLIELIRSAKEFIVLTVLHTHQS

LIN7A, O14910 = target: T2, LIN7A, O14910
T2 sequence (O14910 103-200, limits assumed, looked up): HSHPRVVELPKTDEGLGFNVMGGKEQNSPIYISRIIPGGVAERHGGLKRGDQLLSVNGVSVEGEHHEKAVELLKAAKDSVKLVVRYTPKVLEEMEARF

GOPC, Q9HD26 = target: GOPC, Q9HD26
DLG3_2, Q92796 = target: T3, DLG3_2, Q92796
T3 sequence (Q92796 221-321, limits assumed, looked up): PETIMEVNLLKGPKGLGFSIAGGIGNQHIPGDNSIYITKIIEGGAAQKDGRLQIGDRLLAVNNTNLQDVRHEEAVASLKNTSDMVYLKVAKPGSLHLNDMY

DLG3_1, Q92796 = target: T4, DLG3_1, Q92796
T4 sequence (Q92796 125-227, limits assumed, looked up): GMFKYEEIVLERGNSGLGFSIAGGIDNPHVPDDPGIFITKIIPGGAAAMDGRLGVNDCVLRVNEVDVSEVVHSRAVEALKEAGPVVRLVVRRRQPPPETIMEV

SCRIB_2, Q14160 = target: SCRIB_2, Q14160
SCRIB_2, Q14160, sequence (Q14160 857-960): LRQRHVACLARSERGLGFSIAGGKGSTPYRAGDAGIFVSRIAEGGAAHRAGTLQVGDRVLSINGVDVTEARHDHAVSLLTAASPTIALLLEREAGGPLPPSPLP

MAGI3_2, Q5TCQ9 = target: MAGI3_2, Q5TCQ9
MAGI3_2, Q5TCQ9, sequence (Q5TCQ9 398-503): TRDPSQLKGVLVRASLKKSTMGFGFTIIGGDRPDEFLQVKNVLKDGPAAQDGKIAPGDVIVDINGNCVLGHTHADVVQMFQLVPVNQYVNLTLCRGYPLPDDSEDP

TJP1_2, Q07157 = target: TJP1_2, Q07157
TJP1_2, Q07157, sequence (Q07157 181-274): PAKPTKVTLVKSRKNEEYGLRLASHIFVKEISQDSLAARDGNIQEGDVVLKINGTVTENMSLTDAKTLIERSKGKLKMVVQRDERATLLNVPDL

SHANK1, Q9Y566 = target: T5, SHANK1, Q9Y566
T5 sequence (Q9Y566 658-767, limits assumed, looked up): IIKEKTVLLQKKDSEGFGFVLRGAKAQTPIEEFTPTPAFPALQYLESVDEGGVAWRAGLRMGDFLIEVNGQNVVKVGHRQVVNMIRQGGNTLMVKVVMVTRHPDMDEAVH

SIPA1L2, Q9P2F8 = target: T6, SIPA1L2, Q9P2F8
T6 sequence (Q9P2F8 945-1036, limits assumed, looked up): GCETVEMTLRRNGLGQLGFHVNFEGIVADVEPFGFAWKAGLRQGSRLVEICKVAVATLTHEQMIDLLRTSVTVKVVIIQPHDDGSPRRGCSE

DLG1_3, Q12959 = target: DLG1_3, Q12959
DLG1_1, Q12959 = target: DLG1_1, Q12959
MAGI2_2, Q86UL8 = target: MAGI2_2, Q86UL8
MAGI2_2, Q86UL8, sequence (Q86UL8 410-522): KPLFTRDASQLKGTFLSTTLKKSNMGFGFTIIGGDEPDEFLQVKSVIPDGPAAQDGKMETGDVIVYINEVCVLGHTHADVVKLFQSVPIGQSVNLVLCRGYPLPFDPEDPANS

PDLIM1, O00151 = target: PDLIM1, O00151
PDLIM1, O00151, sequence (O00151 1-87): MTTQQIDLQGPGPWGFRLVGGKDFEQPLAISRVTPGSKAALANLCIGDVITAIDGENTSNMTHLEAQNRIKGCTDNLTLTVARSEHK

ARHGEF11, O15085 = target: T7, ARHGEF11, O15085
T7 sequence (O15085 42-136, limits assumed, looked up): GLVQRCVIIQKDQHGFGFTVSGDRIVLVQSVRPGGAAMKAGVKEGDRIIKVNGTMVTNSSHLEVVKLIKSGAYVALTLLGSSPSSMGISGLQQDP

DLG4_3, P78352 = target: DLG4_3, P78352
DLG4_3, P78352, sequence (P78352 306-403): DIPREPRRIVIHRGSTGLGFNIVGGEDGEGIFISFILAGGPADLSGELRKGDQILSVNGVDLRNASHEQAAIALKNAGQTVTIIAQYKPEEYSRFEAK

MAGI1_2, Q96QZ7 = target: MAGI1_2, Q96QZ7
MAGI1_2, Q96QZ7, sequence (Q96QZ7 456-580): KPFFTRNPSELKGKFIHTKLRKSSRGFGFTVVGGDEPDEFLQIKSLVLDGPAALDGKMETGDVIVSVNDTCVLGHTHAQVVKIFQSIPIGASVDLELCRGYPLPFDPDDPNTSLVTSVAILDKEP

GRIP1_5, Q9Y3R0 = target: T8, GRIP1_5, Q9Y3R0
T8 sequence (Q9Y3R0 568-668, limits assumed, looked up): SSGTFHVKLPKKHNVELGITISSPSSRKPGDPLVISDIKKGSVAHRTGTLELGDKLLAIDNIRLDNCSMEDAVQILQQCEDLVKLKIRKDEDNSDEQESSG

RADIL, Q96JH8 = target: T9, RADIL, Q96JH8
T9 sequence (Q96JH8 971-1071, limits assumed, looked up): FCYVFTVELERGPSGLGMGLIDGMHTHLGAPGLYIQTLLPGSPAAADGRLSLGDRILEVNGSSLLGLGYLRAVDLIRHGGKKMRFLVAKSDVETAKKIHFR

GRASP, Q7Z6J2 = target: GRASP, Q7Z6J2
GRASP, Q7Z6J2, sequence (Q7Z6J2 96-193): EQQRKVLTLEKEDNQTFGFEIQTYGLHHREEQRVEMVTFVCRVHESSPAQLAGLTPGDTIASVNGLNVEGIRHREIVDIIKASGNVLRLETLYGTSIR

AHNAK1, Q09666 = target: AHNAK1, Q09666
AHNAK1, Q09666, sequence (Q09666 4-100): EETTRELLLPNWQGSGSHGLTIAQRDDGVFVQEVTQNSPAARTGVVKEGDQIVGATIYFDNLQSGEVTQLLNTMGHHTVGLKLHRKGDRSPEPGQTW

LDB3, O75112 = target: LDB3, O75112
LDB3, O75112, sequence (O75112 1-94): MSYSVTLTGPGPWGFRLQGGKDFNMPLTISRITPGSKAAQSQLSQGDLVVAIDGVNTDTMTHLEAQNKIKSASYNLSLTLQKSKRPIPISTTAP

GORASP2, Q9H8Y8 = target: GORASP2, Q9H8Y8
SCRIB_3, Q14160 = target: SCRIB_3, Q14160
SCRIB_3, Q14160, sequence (Q14160 999-1103): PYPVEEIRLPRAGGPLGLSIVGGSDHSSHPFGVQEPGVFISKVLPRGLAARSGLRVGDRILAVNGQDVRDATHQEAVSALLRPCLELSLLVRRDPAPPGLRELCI

[1] = plain residues with an end cap or a label only (N-terminal biotin on a linker: ado-ado)
[2] = modified: phospho on T at position -2 from the C-terminal residue

Measured: pKd

IL16_1, Q14005, sequence (Q14005 210-306): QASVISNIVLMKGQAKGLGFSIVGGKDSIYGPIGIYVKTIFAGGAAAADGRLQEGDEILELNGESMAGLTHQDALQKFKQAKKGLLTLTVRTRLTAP
TJP2_1, Q9UDY2, sequence (Q9UDY2 24-128): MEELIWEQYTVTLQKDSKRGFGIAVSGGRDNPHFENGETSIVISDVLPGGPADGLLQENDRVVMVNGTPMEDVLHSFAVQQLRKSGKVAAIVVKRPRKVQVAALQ
DLG4_2, P78352, sequence (P78352 155-259): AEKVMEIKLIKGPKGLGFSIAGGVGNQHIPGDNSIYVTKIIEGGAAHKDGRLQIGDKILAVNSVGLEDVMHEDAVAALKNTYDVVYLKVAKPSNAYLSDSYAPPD

LGRSTPQSEV [DGKH, Q86XP1]
3.92: DLG4_2, P78352; [1]
4.15: ARHGEF11, O15085; [1]
3.58: MAGI2_2, Q86UL8; [1]
below the threshold: TJP2_1, Q9UDY2; [1] | IL16_1, Q14005; [1] | FRMPD3, Q5JV73; [1] | LIN7A, O14910; [1] | DLG3_2, Q92796; [1] | DLG3_1, Q92796; [1] | SCRIB_2, Q14160; [1] | TJP1_2, Q07157; [1] | SHANK1, Q9Y566; [1] | SIPA1L2, Q9P2F8; [1] | DLG1_3, Q12959; [1] | DLG1_1, Q12959; [1] | PDLIM1, O00151; [1] | DLG4_3, P78352; [1] | MAGI1_2, Q96QZ7; [1] | GRIP1_5, Q9Y3R0; [1] | RADIL, Q96JH8; [1] | AHNAK1, Q09666; [1] | LDB3, O75112; [1] | GORASP2, Q9H8Y8; [1]
3.71: MPP6, Q9NZW5; [1]
3.87: GOPC, Q9HD26; [1]
3.51: GRASP, Q7Z6J2; [1]
3.8: SCRIB_3, Q14160; [1]
4.04: MAGI3_2, Q5TCQ9; [1]

YNNCLEILRV [DCAF7, P61962]
3.9: GRASP, Q7Z6J2; [1]
5.55: GORASP2, Q9H8Y8; [1]
below the threshold: MPP6, Q9NZW5; [1] | DLG4_2, P78352; [1] | TJP2_1, Q9UDY2; [1] | IL16_1, Q14005; [1] | FRMPD3, Q5JV73; [1] | LIN7A, O14910; [1] | GOPC, Q9HD26; [1] | DLG3_2, Q92796; [1] | DLG3_1, Q92796; [1] | SCRIB_2, Q14160; [1] | MAGI3_2, Q5TCQ9; [1] | SHANK1, Q9Y566; [1] | SIPA1L2, Q9P2F8; [1] | DLG1_3, Q12959; [1] | DLG1_1, Q12959; [1] | MAGI2_2, Q86UL8; [1] | PDLIM1, O00151; [1] | DLG4_3, P78352; [1] | MAGI1_2, Q96QZ7; [1] | GRIP1_5, Q9Y3R0; [1] | AHNAK1, Q09666; [1] | LDB3, O75112; [1] | SCRIB_3, Q14160; [1]
5.14: RADIL, Q96JH8; [1]
3.78: ARHGEF11, O15085; [1]
4.25: TJP1_2, Q07157; [1]

RRLPGKETMA [GRIK2, Q13002]
4.18: DLG3_2, Q92796; [1]
3.55: GORASP2, Q9H8Y8; [1]
below the threshold: MPP6, Q9NZW5; [1] | DLG4_2, P78352; [1] | TJP2_1, Q9UDY2; [1] | IL16_1, Q14005; [1] | FRMPD3, Q5JV73; [1] | LIN7A, O14910; [1] | GOPC, Q9HD26; [1] | DLG3_1, Q92796; [1] | SCRIB_2, Q14160; [1] | MAGI3_2, Q5TCQ9; [1] | TJP1_2, Q07157; [1] | SHANK1, Q9Y566; [1] | SIPA1L2, Q9P2F8; [1] | DLG1_1, Q12959; [1] | MAGI2_2, Q86UL8; [1] | PDLIM1, O00151; [1] | ARHGEF11, O15085; [1] | DLG4_3, P78352; [1] | MAGI1_2, Q96QZ7; [1] | GRIP1_5, Q9Y3R0; [1] | RADIL, Q96JH8; [1] | GRASP, Q7Z6J2; [1] | AHNAK1, Q09666; [1] | LDB3, O75112; [1] | SCRIB_3, Q14160; [1]
3.69: DLG1_3, Q12959; [1]

SKPTRRETEV [HPV35-E6_-2P, P27228]
3.56: DLG4_2, P78352; [2]
3.78: MPP6, Q9NZW5; [2]
below the threshold: TJP2_1, Q9UDY2; [2] | IL16_1, Q14005; [2] | FRMPD3, Q5JV73; [2] | LIN7A, O14910; [2] | GOPC, Q9HD26; [2] | DLG3_2, Q92796; [2] | DLG3_1, Q92796; [2] | SCRIB_2, Q14160; [2] | MAGI3_2, Q5TCQ9; [2] | TJP1_2, Q07157; [2] | SHANK1, Q9Y566; [2] | SIPA1L2, Q9P2F8; [2] | DLG1_3, Q12959; [2] | DLG1_1, Q12959; [2] | MAGI2_2, Q86UL8; [2] | PDLIM1, O00151; [2] | ARHGEF11, O15085; [2] | DLG4_3, P78352; [2] | MAGI1_2, Q96QZ7; [2] | GRIP1_5, Q9Y3R0; [2] | RADIL, Q96JH8; [2] | GRASP, Q7Z6J2; [2] | AHNAK1, Q09666; [2] | LDB3, O75112; [2] | GORASP2, Q9H8Y8; [2] | SCRIB_3, Q14160; [2]

RRRESYSTTV [EVI5, O60447]
3.47: SIPA1L2, Q9P2F8; [1]
4.8: RADIL, Q96JH8; [1]
4.78: MAGI1_2, Q96QZ7; [1]
4.36: GOPC, Q9HD26; [1] | SHANK1, Q9Y566; [1]
4.55: GRASP, Q7Z6J2; [1]
5.06: DLG3_1, Q92796; [1]
5.15: MAGI2_2, Q86UL8; [1]
5.87: DLG4_2, P78352; [1]
4.84: TJP2_1, Q9UDY2; [1]
below the threshold: MPP6, Q9NZW5; [1] | IL16_1, Q14005; [1] | FRMPD3, Q5JV73; [1] | LIN7A, O14910; [1] | SCRIB_2, Q14160; [1] | TJP1_2, Q07157; [1] | PDLIM1, O00151; [1] | GRIP1_5, Q9Y3R0; [1] | AHNAK1, Q09666; [1] | LDB3, O75112; [1]
5.13: GORASP2, Q9H8Y8; [1]
5.44: DLG3_2, Q92796; [1]
4.44: DLG4_3, P78352; [1]
4.16: DLG1_3, Q12959; [1]
5.66: DLG1_1, Q12959; [1]
5.18: MAGI3_2, Q5TCQ9; [1]
4.48: SCRIB_3, Q14160; [1]
4.68: ARHGEF11, O15085; [1]

From PMC9482650, “Quantitative fragmentomics allow affinity mapping of interactomes” (Nature Communications, 2022)
